US20210095036A1 (University of Pennsylvania, published 2021)
One block for each binder: values may come before it.

Experiments:
[1] = molecular target: T1, GFRα4 isoform a (GFRα4a), Fc fusion with 6 His (human); test: phage ELISA, immobilized GFRα4a; first token of the cell (GFRα4b: NT)
T1 construct: the entry holds the whole fusion; also called GFR4α4a; immobilized GFRα4 isoform a
T1 chain: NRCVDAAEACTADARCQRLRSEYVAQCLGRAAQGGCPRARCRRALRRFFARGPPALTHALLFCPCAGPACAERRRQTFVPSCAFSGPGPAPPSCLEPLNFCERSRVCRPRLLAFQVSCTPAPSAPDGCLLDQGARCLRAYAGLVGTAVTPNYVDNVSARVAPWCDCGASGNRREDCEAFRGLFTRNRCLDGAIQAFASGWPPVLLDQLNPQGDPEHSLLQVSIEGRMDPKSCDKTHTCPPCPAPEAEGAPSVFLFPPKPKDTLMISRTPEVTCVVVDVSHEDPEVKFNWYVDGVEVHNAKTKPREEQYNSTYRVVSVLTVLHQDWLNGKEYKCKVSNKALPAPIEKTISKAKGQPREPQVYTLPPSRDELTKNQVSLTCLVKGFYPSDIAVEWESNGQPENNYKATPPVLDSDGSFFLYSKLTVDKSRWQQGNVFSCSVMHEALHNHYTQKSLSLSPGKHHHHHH
Text: (§1) To perform these ELISAs, the GFRα4a isoform comprising a portion of GFRα4a (Asn24 -Ser245, UniProt accession #Q9GZZ7-2) was used, followed by a Factor Xa cleavage site/linker, a portion of optimized IgG1 Fc domain (Pro100-Lys330), and 6 His residues for purification. The GFRα4b isoform comprised a portion of GFRα4b (Asn24-Va1274, UniProt #Q9GZZ7-1), followed by a TEV cleavage site linker, and a portion of human IgG1 Fc domain (Asp104-Lys330).

CD19-Fc = molecular target: T2, CD19-Fc (UniProt P15391 20-291); test: flow cytometry of CAR T cells stained with Fc-fusion antigen and anti-human Fc-specific antibodies
T2 construct: The words recombinant human Fc-fusions leave open whether human means the Fc or the antigen; also called recombinant human Fc-fusion of CD19 antigen; Fc-conjugated soluble CD19; not shown: human Fc
T2 sequence (looked up): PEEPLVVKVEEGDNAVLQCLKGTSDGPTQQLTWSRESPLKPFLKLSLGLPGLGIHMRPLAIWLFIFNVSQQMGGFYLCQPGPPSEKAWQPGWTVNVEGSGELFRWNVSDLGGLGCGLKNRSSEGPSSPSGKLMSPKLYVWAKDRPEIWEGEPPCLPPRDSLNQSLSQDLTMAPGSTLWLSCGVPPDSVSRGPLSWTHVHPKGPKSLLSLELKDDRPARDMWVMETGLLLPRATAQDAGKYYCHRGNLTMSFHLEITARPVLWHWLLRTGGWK
Method: (§2) To create CAR-T expressing cells, human T cells from healthy donors were activated with anti-CD3 and anti-CD28 coated paramagnetic beads (DYNABEADS® Human T-Activator CD3/CD28, Life Technologies). One day following activation, cells were transduced with lentiviral vectors encoding GFRα4-directed CARs (original rabbit P4-10 and humanized versions), a CD19-directed control CAR (FMC63(cd8)bbz), or were left non-transduced (NTD). Cells were expanded and on day 7, cells were evaluated for cell-surface expression of the CARs by flow cytometry (FACSCalibur, BD Biosciences, Franklin Lakes, N.J.). Fluorescently-labeled goat anti-rabbit antibodies detected CAR P4-10, the original rabbit GFRα4-directed CAR, and fluorescently-labeled Protein L detected the murine CD19-directed CAR (FIG. 19A, “P410” and “19bbz”, respectively). Fluorescently-labeled rabbit anti-human antibodies (“RaH”) detected CARs 10, 14, 25, and 29 (FIG. 19B). Expression of cell-surface CARs were also detected by staining with antigen using recombinant human Fc-fusions of GFRα4 or CD19 antigen followed by detection of bound antigen with fluorescently-labeled anti-human Fc-specific antibodies (FIG. 19C). Appropriately, CD19-Fc only bound to CD19-directed CARs while GFRα4-Fc bound to both rabbit P4-10 and humanized P4-10 CARs but not the CD19-directed CAR.

[2] = molecular target: T3, GFRα4 isoform b (GFRα4b), Fc fusion (human); test: flow cytometry of CAR T cells stained with Fc-fusion antigen and anti-human Fc-specific antibodies (FIG. 19C)
T3 construct: the entry holds the whole fusion; also called GFR4α4b; GFRα4-Fc
Method: as §2

[3] = molecular target: T4, human GFRα4 isoform a (GFRα4a) on transduced cells (human, UniProt Q9GZZ7-2 21-248); test: flow cytometry and sorting of Nalm6 cells transduced with human GFRα4a-T2A-GFP
T4 construct: whole, on cells; also called Nalm6 cells expressing the GFRα4 isoform a
T4 sequence (looked up): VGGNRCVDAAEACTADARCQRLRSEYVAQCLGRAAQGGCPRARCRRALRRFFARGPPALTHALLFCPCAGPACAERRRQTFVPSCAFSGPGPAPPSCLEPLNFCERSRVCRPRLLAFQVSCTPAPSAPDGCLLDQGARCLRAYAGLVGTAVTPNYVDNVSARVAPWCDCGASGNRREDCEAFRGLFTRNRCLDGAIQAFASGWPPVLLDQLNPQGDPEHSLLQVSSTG
Method: Cytotoxicity of target cells by GFRα4-directed CAR-T cells was evaluated using a 51Cr release-assay. Target cells comprised either Nalm6 cells (a CD19-expressing B-cell precursor leukemia cell line (ATCC® CRL-3273TM)), Nalm6 cells expressing the GFRα4 isoform a (GFRα4a) or isoform b (GFRα4b), or TT cells (a human medullary thyroid cancer cell line (ATCC® CRL-1803TM)). Nalm6 cells expressing GFRα4 proteins were produced by transduction with lentiviral vectors encoding human GFRα4a-T2A-GFP or human GFRα4b-T2A-GFP (Milone et al. (2009) Molecular Therapy., 17: 1453-1464). […] P4-10 antibody comprised a full-length rabbit IgG containing the P4-10 rabbit variable regions and was a gift of Novartis Pharmaceuticals.

[4] = molecular target: T1, GFRα4 isoform a (GFRα4a), Fc fusion …; test: phage ELISA, immobilized GFRα4a (FIG. 6)
Text: as §1
(§3) Binding of the positive scFvs from this experiment were also screened for binding to GFRα4b (FIG. 7). […] As observed in previous ELISAs of this type with the original rabbit P4-10 expressed as an antibody fragment on phage, reactivity always appears greater against the GFRα4b isoform.

[5] = molecular target: T3, GFRα4 isoform b (GFRα4b), Fc fusion; test: phage ELISA, immobilized GFRα4b against GFRα4a
Text: as §1, §3

[6] = molecular target: T3, GFRα4 isoform b (GFRα4b), Fc fusion; test: phage ELISA, immobilized GFRα4b; second token of the cell
Text: as §1
Target sequence in this assay (chain, as listed by the source limits assumed): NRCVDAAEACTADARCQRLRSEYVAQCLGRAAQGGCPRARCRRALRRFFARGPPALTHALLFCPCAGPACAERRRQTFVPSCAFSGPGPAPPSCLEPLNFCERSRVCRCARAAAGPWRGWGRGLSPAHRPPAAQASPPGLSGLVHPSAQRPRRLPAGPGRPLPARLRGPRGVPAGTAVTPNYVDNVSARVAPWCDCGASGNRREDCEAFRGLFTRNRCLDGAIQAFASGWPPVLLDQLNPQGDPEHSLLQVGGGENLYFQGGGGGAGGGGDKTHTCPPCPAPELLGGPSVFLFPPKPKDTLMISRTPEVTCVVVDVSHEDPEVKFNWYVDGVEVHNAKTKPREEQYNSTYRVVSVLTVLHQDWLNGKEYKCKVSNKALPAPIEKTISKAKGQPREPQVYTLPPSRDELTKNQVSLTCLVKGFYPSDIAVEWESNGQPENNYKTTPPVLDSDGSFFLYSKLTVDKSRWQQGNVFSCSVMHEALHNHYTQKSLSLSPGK

[7] = molecular target: T1, GFRα4 isoform a (GFRα4a), Fc fusion …; test: phage ELISA, immobilized GFRα4a; first token of the cell (W weak binding)
Text: as §1

binding result [1]: no binding
B1: 9.H2.L1 (scFv)
scFv: QLVLTQSPSASASLGASVKLTCTLSSAHKTYTIAWHQQQPEKGPRYLMKVKSDGSYSKGDGIPDRFSGSSSGAERYLTISSLQSEDEADYYCGADDNGGYVFGGGTKLTVLGGGSSRSSSSGGGGSGGGGEVQLVESGGGLVQPGGSLRLSCAASGFTFSRHALTWVRQAPGKGLEWVSAIDNAGTTYYASWAKSRFTISRDNAKNSLYLQMNSLRAEDTAVYYCARVFYDINSGYYLDGMDLWGPGTLVTVSS
notes: pIII not in the entry; order Vλ-linker-VH; also called scFv 9

binding result (CD19-Fc): no binding | binding result [2]: binds
B2: CAR P4-10, the original rabbit GFRα4-directed CAR (other)
VH: QSVKESEGGLFKPTDTLTLTCTVSGFSLSRHALTWVRQAPGNGLEWIGAIDNAGTTYYASWAKSRSTITRNTDLHTVTLKMTSLTASDTATYFCARVFYDINSGYYLDGMDLWGPGTLVTVSS
VL: QFVLTQSPSVSAALGASAKLTCTLSSAHKTYTIDWYQQQQGEAPRYLMQVKSDGSYTKGTGVPDRFSGSSSGADRYLIIPSVQADDEAGYVCGADDNGGYVFGGGTQLTVT
notes: Chimeric antigen receptor on transduced human T cells, one chain in fact; also called P410bbz; P4-10 CAR

binding result [3]: binds
B3: P4-10 antibody (full-length rabbit IgG containing the P4-10 rabbit variable regions) (antibody, V domains shown)
VH: B2 VH
VL: B2 VL
notes: Full-length rabbit IgG, lambda light chain; also called anti-GFRα4 P4-10 antibody; rabbit P4-10

binding result [1]: no binding
B4: 5.H2.L2 (scFv)
scFv: QSVLTQPPSASGTPGQRVTISCSGSSAHKTYTVNWYQQLPGTAPKLLIYVKSDGSYQRPSGVPDRFSGSKSGTSASLAISGLQSEDEADYYCGADDNGGYVFGGGTKLTVLGGGSSRSSSSGGGGSGGGGEVQLVESGGGLVQPGGSLRLSCAASGFTFSRHALTWVRQAPGKGLEWVSAIDNAGTTYYASWAKSRFTISRDNAKNSLYLQMNSLRAEDTAVYYCARVFYDINSGYYLDGMDLWGPGTLVTVSS
notes: pIII not in the entry; order Vλ-linker-VH; also called scFv 5

binding result [4]: binds | binding result [5]: binds
B5: 0.410HC.410LC (scFv)
scFv: QFVLTQSPSVSAALGASAKLTCTLSSAHKTYTIDWYQQQQGEAPRYLMQVKSDGSYTKGTGVPDRFSGSSSGADRYLIIPSVQADDEAGYVCGADDNGGYVFGGGTQLTVTGGGSSRSSSSGGGGSGGGGQSVKESEGGLFKPTDTLTLTCTVSGFSLSRHALTWVRQAPGNGLEWIGAIDNAGTTYYASWAKSRSTITRNTDLHTVTLKMTSLTASDTATYFCARVFYDINSGYYLDGMDLWGPGTLVTVSS
notes: pIII not in the entry; order Vλ-linker-VH; positive control; also called original rabbit P4-10 scFv; scFv 0

binding result [1]: no binding
B6: 3.H1m1.L3 (scFv)
scFv: QSALTQPASVSGSPGQSITISCTGTSAHKTYTVSWYQQHPGKAPKLMIYVKSDGSYNRPSGVSNRFSGSKSGNTASLTISGLQAEDEADYYCGADDNGGYVFGGGTKLTVLGGGSSRSSSSGGGGSGGGGQQSVKESGPGLVKPSETLSLTCAVSGFSLSRHALTWVRQPPGKGLEWIGAIDNAGTTYYASWAKSRVTISRNTDLHTVSLKLSSVTAADTAVYFCARVFYDINSGYYLDGMDLWGPGTLVTVSS
notes: pIII not in the entry; order Vλ-linker-VH; also called scFv 3; H1m.L3

binding result [1]: no binding
B7: 11.H2m1.L1 (scFv)
scFv: QLVLTQSPSASASLGASVKLTCTLSSAHKTYTIAWHQQQPEKGPRYLMKVKSDGSYSKGDGIPDRFSGSSSGAERYLTISSLQSEDEADYYCGADDNGGYVFGGGTKLTVLGGGSSRSSSSGGGGSGGGGEQSVKESGGGLVQPGGSLRLSCAASGFTLSRHALTWVRQAPGKGLEWIGAIDNAGTTYYASWAKSRFTISRNTDLHTVYLQMNSLRAEDTAVYFCARVFYDINSGYYLDGMDLWGPGTLVTVSS
notes: pIII not in the entry; order Vλ-linker-VH; The printed entry has an E before QSVKE of the VH; also called scFv 11

binding result [1]: no binding
B8: 7.H2m1.L2 (scFv)
scFv: QSVLTQPPSASGTPGQRVTISCSGSSAHKTYTVNWYQQLPGTAPKLLIYVKSDGSYQRPSGVPDRFSGSKSGTSASLAISGLQSEDEADYYCGADDNGGYVFGGGTKLTVLGGGSSRSSSSGGGGSGGGGEQSVKESGGGLVQPGGSLRLSCAASGFTLSRHALTWVRQAPGKGLEWIGAIDNAGTTYYASWAKSRFTISRNTDLHTVYLQMNSLRAEDTAVYFCARVFYDINSGYYLDGMDLWGPGTLVTVSS
notes: pIII not in the entry; order Vλ-linker-VH; The printed entry has an E before QSVKE of the VH; also called scFv 7

binding result [1]: no binding
B9: 1.H1.L3 (scFv)
scFv: QSALTQPASVSGSPGQSITISCTGTSAHKTYTVSWYQQHPGKAPKLMIYVKSDGSYNRPSGVSNRFSGSKSGNTASLTISGLQAEDEADYYCGADDNGGYVFGGGTKLTVLGGGSSRSSSSGGGGSGGGGQVQLQESGPGLVKPSETLSLTCAVSGYSISRHALTWIRQPPGKGLEWIGAIDNAGTTYYASWAKSRVTISVDTSKNQFSLKLSSVTAADTAVYYCARVFYDINSGYYLDGMDLWGPGTLVTVSS
notes: pIII not in the entry; order Vλ-linker-VH; also called scFv 1

binding result [6]: binds | binding result [7]: binds
B10: 23.H1.L2m1 (scFv)
scFv: QFVLTQPPSASGTPGQRVTISCTLSSAHKTYTIDWYQQLPGTAPKLLIYVKSDGSYTKGTGVPDRFSGSSSGADRYLAISGLQSEDEADYYCGADDNGGYVFGGGTQLTVTGGGSSRSSSSGGGGSGGGGQVQLQESGPGLVKPSETLSLTCAVSGYSISRHALTWIRQPPGKGLEWIGAIDNAGTTYYASWAKSRVTISVDTSKNQFSLKLSSVTAADTAVYYCARVFYDINSGYYLDGMDLWGPGTLVTVSS
notes: pIII not in the entry; order Vλ-linker-VH; also called scFv 23

binding result [1]: no binding
B11: 15.H1m1.L1 (scFv)
scFv: QLVLTQSPSASASLGASVKLTCTLSSAHKTYTIAWHQQQPEKGPRYLMKVKSDGSYSKGDGIPDRFSGSSSGAERYLTISSLQSEDEADYYCGADDNGGYVFGGGTKLTVLGGGSSRSSSSGGGGSGGGGQQSVKESGPGLVKPSETLSLTCAVSGFSLSRHALTWVRQPPGKGLEWIGAIDNAGTTYYASWAKSRVTISRNTDLHTVSLKLSSVTAADTAVYFCARVFYDINSGYYLDGMDLWGPGTLVTVSS
notes: pIII not in the entry; order Vλ-linker-VH; also called scFv 15
